Results as given in patent US20150125444A1 (AstraZeneca / MedImmune, published 2015).

T1: Human FcγRIIa extracellular domain (human, UniProt P12318 34-217)
T1 construct: extracellular domain
T1 sequence (looked up): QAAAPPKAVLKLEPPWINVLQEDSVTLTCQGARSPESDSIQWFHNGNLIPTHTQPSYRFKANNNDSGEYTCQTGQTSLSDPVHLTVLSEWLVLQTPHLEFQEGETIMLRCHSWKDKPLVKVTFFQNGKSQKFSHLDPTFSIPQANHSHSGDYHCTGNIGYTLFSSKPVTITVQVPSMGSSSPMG

T2: Human FcγRIIb extracellular domain (human, UniProt P31994 43-217)
T2 construct: extracellular domain
T2 sequence (looked up): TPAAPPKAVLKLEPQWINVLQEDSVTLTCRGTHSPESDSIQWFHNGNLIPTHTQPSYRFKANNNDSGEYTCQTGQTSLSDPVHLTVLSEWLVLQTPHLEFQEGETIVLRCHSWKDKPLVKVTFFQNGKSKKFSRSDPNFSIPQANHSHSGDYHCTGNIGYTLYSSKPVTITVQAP


How the values were obtained:
Experiment in all cases: SPR (ProteOn XPR36), antibody immobilised, steady state, pH 7.4
[1] = molecular target: T3, Human FcγRIIIa (158V) extracellular domain (human, UniProt P08637 17-208)
T3 construct: extracellular domain; Position 158 is the usual allotype numbering (mature protein), not the precursor numbering of the database entry; also called FcγRIII(158V)
T3 sequence (P08637 17-208 F176V): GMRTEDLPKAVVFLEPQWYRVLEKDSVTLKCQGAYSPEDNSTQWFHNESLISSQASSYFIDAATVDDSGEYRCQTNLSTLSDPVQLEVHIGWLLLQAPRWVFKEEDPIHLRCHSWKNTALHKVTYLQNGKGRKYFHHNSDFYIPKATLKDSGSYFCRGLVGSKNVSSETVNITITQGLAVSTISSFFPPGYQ
Description: (§1) Experiments were performed using the ProteOn XPR36 surface plasmon resonance system (Bio Rad). Phosphate buffered saline with 0.005% Tween 20 (PBS/Tween), pH 7.4 was used as running buffer for most experiments with the exception of Human FcRn (extracellular domain) binding in which Phosphate buffered saline with 0.005% Tween 20 (PBS/Tween), pH 6.0 was used. All experiments were performed at 25° C. Antibodies were immobilized on a ProteOn™ GLC Sensor Chip (#176-5011) using EDAC (1-Ethyl-3-[3-dimethylaminopropyl]carbodiimide) and sulfo-NHS (N-hydroxysulfosuccinimide) to an R.U. (response unit) level of 4000-6000. C1q, FcγRI, FcγRIIa, FcγRIIb, FcγRIII(158V), FcγRIII(158F), and FcRn were then flowed over the IgG immobilized surface at various concentrations at a rate of 25 μl/minute for a long enough period of time to achieve steady state, or near steady state. Binding (if any could be determined) was quantified via steady state equilibrium binding analysis using the ProteOn software. Human FcγRI, FcγRIIa, FcγRIIb, FcγRIII(158V), FcγRIII(158F), and FcRn extracellular domains were generated via mammalian expression vectors in house. Human C1q was obtained from Quidel (CA).

[2] = molecular target: T4, Human FcγRIIIa (158F) extracellular domain (human, UniProt P08637 17-208)
T4 construct: extracellular domain; also called FcγRIII(158F)
T4 sequence (P08637 17-208): as the sequence (P08637 17-208 F176V) above, with V160F counted along it
Description: as §1

[3] = molecular target: T1, Human FcγRIIa extracellular domain
Description: as §1

[4] = molecular target: T2, Human FcγRIIb extracellular domain
Description: as §1

[5] = molecular target: T5, Human FcγRIa extracellular domain (human, UniProt P12314 16-292)
T5 construct: extracellular domain
T5 sequence (P12314 16-292): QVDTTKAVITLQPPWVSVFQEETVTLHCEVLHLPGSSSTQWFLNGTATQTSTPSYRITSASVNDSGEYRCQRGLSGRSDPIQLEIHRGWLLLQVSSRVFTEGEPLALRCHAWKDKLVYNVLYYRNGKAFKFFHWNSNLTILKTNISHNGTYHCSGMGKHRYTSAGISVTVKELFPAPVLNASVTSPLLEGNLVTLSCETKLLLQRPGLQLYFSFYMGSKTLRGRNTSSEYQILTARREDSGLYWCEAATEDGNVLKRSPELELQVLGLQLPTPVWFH
Description: as §1

Human C1q = molecular target: T6, Human C1q (human, UniProt P02745 23-245; P02746 28-253; P02747 29-245)
T6 construct: Bought complement protein; In the CDC assay C1q came with human serum
T6 sequence (P02745 23-245 limits assumed, chain 1 of 3): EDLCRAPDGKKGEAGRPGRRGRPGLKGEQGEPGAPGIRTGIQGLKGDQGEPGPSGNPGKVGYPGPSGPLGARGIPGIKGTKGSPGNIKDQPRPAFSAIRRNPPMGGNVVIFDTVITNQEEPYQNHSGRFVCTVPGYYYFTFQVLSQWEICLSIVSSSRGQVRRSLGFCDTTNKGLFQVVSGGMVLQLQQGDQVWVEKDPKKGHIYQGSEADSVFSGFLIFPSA
T6 sequence (P02746 28-253 limits assumed, chain 2 of 3): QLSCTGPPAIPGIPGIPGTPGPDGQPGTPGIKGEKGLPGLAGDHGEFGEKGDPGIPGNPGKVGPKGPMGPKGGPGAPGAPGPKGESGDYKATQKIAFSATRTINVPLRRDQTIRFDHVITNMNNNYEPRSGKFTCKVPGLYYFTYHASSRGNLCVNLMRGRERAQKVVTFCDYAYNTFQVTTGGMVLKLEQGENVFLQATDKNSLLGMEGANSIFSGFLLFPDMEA
T6 sequence (P02747 29-245 limits assumed, chain 3 of 3): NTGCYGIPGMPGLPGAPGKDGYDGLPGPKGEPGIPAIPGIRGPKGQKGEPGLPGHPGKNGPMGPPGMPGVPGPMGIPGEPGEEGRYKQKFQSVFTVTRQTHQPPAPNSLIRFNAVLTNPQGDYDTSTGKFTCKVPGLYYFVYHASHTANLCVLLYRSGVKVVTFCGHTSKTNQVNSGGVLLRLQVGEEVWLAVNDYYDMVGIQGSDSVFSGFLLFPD
Description: as §1

Binder | binding result [1] | binding result [2] | binding result [3] | binding result [4] | binding result [5] | binding result (Human C1q) | Kd (Human C1q) [nM]
Ab3 (anti-CD20 antibody HB20.3) with FQG-YTE variant IgG1 Fc domain (antibody, Full IgG1; also called Ab3 FQG-YTE; YTE-FQG) heavy: QVQLQQPGAELVKPGASVKMSCKASGFTFTNYNMHWLKQTPGQGLEWIGAIYPENGDTSYNQKFKGKATLTADKASSTAYMHLSSLTSEDSAVYFCARFYYYGSYYGAMDYWGQGTSVTVSSASTKGPSVFPLAPSSKSTSGGTAALGCLVKDYFPEPVTVSWNSGALTSGVHTFPAVLQSSGLYSLSSVVTVPSSSLGTQTYICNVNHKPSNTKVDKRVEPKSCDKTHTCPPCPAPEFQGGPSVFLFPPKPKDTLYITREPEVTCVVVDVSHEDPEVKFNWYVDGVEVHNAKTKPREEQYNSTYRVVSVLTVLHQDWLNGKEYKCKVSNKALPAGIEKTISKAKGQPREPQVYTLPPSREEMTKNQVSLTCLVKGFYPSDIAVEWESNGQPENNYKTTPPVLDSDGSFFLYSKLTVDKSRWQQGNVFSCSVMHEALHNHYTQKSLSLSPGK light: DIQMTQSPASLSASVGETVTITCRASGNIHNYLAWYQQKQGKSPQLLVYNAKTLADGVPSRFSGSGSGTQFSLKINSLQPEDFGSYYCQHFWSTPWTFGGGTKLEIKRTVAAPSVFIFPPSDEQLKSGTASVVCLLNNFYPREAKVQWKVDNALQSGNSQESVTEQDSKDSTYSLSSTLTLSKADYEKHKVYACEVTHQGLSSPVTKSFNRGEC | no binding | no binding | no binding | no binding | no binding | no binding | –
Ab3 (anti-CD20 antibody HB20.3) with FQQ-YTE variant IgG1 Fc domain (antibody, Full IgG1; also called Ab3 FQQ-YTE; YTE-FQQ) heavy: QVQLQQPGAELVKPGASVKMSCKASGFTFTNYNMHWLKQTPGQGLEWIGAIYPENGDTSYNQKFKGKATLTADKASSTAYMHLSSLTSEDSAVYFCARFYYYGSYYGAMDYWGQGTSVTVSSASTKGPSVFPLAPSSKSTSGGTAALGCLVKDYFPEPVTVSWNSGALTSGVHTFPAVLQSSGLYSLSSVVTVPSSSLGTQTYICNVNHKPSNTKVDKRVEPKSCDKTHTCPPCPAPEFQGGPSVFLFPPKPKDTLYITREPEVTCVVVDVSHEDPEVKFNWYVDGVEVHNAKTKPREEQYNSTYRVVSVLTVLHQDWLNGKEYKCQVSNKALPAPIEKTISKAKGQPREPQVYTLPPSREEMTKNQVSLTCLVKGFYPSDIAVEWESNGQPENNYKTTPPVLDSDGSFFLYSKLTVDKSRWQQGNVFSCSVMHEALHNHYTQKSLSLSPGK light: DIQMTQSPASLSASVGETVTITCRASGNIHNYLAWYQQKQGKSPQLLVYNAKTLADGVPSRFSGSGSGTQFSLKINSLQPEDFGSYYCQHFWSTPWTFGGGTKLEIKRTVAAPSVFIFPPSDEQLKSGTASVVCLLNNFYPREAKVQWKVDNALQSGNSQESVTEQDSKDSTYSLSSTLTLSKADYEKHKVYACEVTHQGLSSPVTKSFNRGEC | no binding | no binding | no binding | no binding | no binding | no binding | –

Second part, the binder after the results:

binding result [1] | binding result [2] | binding result [3] | binding result [4] | binding result [5] | binding result (Human C1q) | Kd (Human C1q) [nM] | Binder
no binding | no binding | no binding | no binding | no binding | no binding | – | Ab3 (anti-CD20 antibody HB20.3) with FAQ-YTE variant IgG1 Fc domain (antibody, Full IgG1; also called Ab3 FAQ-YTE; YTE-FAQ) heavy: QVQLQQPGAELVKPGASVKMSCKASGFTFTNYNMHWLKQTPGQGLEWIGAIYPENGDTSYNQKFKGKATLTADKASSTAYMHLSSLTSEDSAVYFCARFYYYGSYYGAMDYWGQGTSVTVSSASTKGPSVFPLAPSSKSTSGGTAALGCLVKDYFPEPVTVSWNSGALTSGVHTFPAVLQSSGLYSLSSVVTVPSSSLGTQTYICNVNHKPSNTKVDKRVEPKSCDKTHTCPPCPAPEFAGGPSVFLFPPKPKDTLYITREPEVTCVVVDVSHEDPEVKFNWYVDGVEVHNAKTKPREEQYNSTYRVVSVLTVLHQDWLNGKEYKCQVSNKALPAPIEKTISKAKGQPREPQVYTLPPSREEMTKNQVSLTCLVKGFYPSDIAVEWESNGQPENNYKTTPPVLDSDGSFFLYSKLTVDKSRWQQGNVFSCSVMHEALHNHYTQKSLSLSPGK light: DIQMTQSPASLSASVGETVTITCRASGNIHNYLAWYQQKQGKSPQLLVYNAKTLADGVPSRFSGSGSGTQFSLKINSLQPEDFGSYYCQHFWSTPWTFGGGTKLEIKRTVAAPSVFIFPPSDEQLKSGTASVVCLLNNFYPREAKVQWKVDNALQSGNSQESVTEQDSKDSTYSLSSTLTLSKADYEKHKVYACEVTHQGLSSPVTKSFNRGEC
– | – | – | – | – | – | 360 | Ab3 (anti-CD20 antibody HB20.3) with FE-YTE variant IgG1 Fc domain (antibody, Full IgG1; also called Ab3 FE-YTE; YTE-FE) heavy: QVQLQQPGAELVKPGASVKMSCKASGFTFTNYNMHWLKQTPGQGLEWIGAIYPENGDTSYNQKFKGKATLTADKASSTAYMHLSSLTSEDSAVYFCARFYYYGSYYGAMDYWGQGTSVTVSSASTKGPSVFPLAPSSKSTSGGTAALGCLVKDYFPEPVTVSWNSGALTSGVHTFPAVLQSSGLYSLSSVVTVPSSSLGTQTYICNVNHKPSNTKVDKRVEPKSCDKTHTCPPCPAPEFEGGPSVFLFPPKPKDTLYITREPEVTCVVVDVSHEDPEVKFNWYVDGVEVHNAKTKPREEQYNSTYRVVSVLTVLHQDWLNGKEYKCKVSNKALPAPIEKTISKAKGQPREPQVYTLPPSREEMTKNQVSLTCLVKGFYPSDIAVEWESNGQPENNYKTTPPVLDSDGSFFLYSKLTVDKSRWQQGNVFSCSVMHEALHNHYTQKSLSLSPGK light: DIQMTQSPASLSASVGETVTITCRASGNIHNYLAWYQQKQGKSPQLLVYNAKTLADGVPSRFSGSGSGTQFSLKINSLQPEDFGSYYCQHFWSTPWTFGGGTKLEIKRTVAAPSVFIFPPSDEQLKSGTASVVCLLNNFYPREAKVQWKVDNALQSGNSQESVTEQDSKDSTYSLSSTLTLSKADYEKHKVYACEVTHQGLSSPVTKSFNRGEC
no binding | no binding | no binding | no binding | no binding | no binding | – | Ab4 (anti-C5a antibody 1B8) with FAQ-YTE variant IgG1 Fc domain (antibody, Full IgG1; also called Ab4 FAQ-YTE) heavy: EVQLLESGGGLVQPGGSLRLSCAASGFTFSSYVMNWVRQAPGKGLEWVSSISPSGGRTWYADSVKGRFTISRDNSKNTLYLQMNSLRAEDTAVYYCARSDGSAAGFLGYWGQGTLVTVSSASTKGPSVFPLAPSSKSTSGGTAALGCLVKDYFPEPVTVSWNSGALTSGVHTFPAVLQSSGLYSLSSVVTVPSSSLGTQTYICNVNHKPSNTKVDKRVEPKSCDKTHTCPPCPAPEFAGGPSVFLFPPKPKDTLYITREPEVTCVVVDVSHEDPEVKFNWYVDGVEVHNAKTKPREEQYNSTYRVVSVLTVLHQDWLNGKEYKCQVSNKALPAPIEKTISKAKGQPREPQVYTLPPSREEMTKNQVSLTCLVKGFYPSDIAVEWESNGQPENNYKTTPPVLDSDGSFFLYSKLTVDKSRWQQGNVFSCSVMHEALHNHYTQKSLSLSPGK light: QSALTQPPSASGTPGQRVTISCSGTNSNIGSNYVFWYQQLPGTAPKLLIFESNRRPSGVPDRFSGSKSDTSASLAISGLRSEDEADYYCATWDDTLIAPVFGSGTKVTVLGQPKANPTVTLFPPSSEELQANKATLVCLISDFYPGAVTVAWKADSSPVKAGVETTTPSKQSNNKYAASSYLSLTPEQWKSHRSYSCQVTHEGSTVEKTVAPAEC
– | – | – | – | – | binds | – | Ab4 (anti-C5a antibody 1B8) with FE-YTE variant IgG1 Fc domain (antibody, Full IgG1; also called Ab4 FE-YTE) heavy: EVQLLESGGGLVQPGGSLRLSCAASGFTFSSYVMNWVRQAPGKGLEWVSSISPSGGRTWYADSVKGRFTISRDNSKNTLYLQMNSLRAEDTAVYYCARSDGSAAGFLGYWGQGTLVTVSSASTKGPSVFPLAPSSKSTSGGTAALGCLVKDYFPEPVTVSWNSGALTSGVHTFPAVLQSSGLYSLSSVVTVPSSSLGTQTYICNVNHKPSNTKVDKRVEPKSCDKTHTCPPCPAPEFEGGPSVFLFPPKPKDTLYITREPEVTCVVVDVSHEDPEVKFNWYVDGVEVHNAKTKPREEQYNSTYRVVSVLTVLHQDWLNGKEYKCKVSNKALPAPIEKTISKAKGQPREPQVYTLPPSREEMTKNQVSLTCLVKGFYPSDIAVEWESNGQPENNYKTTPPVLDSDGSFFLYSKLTVDKSRWQQGNVFSCSVMHEALHNHYTQKSLSLSPGK light: QSALTQPPSASGTPGQRVTISCSGTNSNIGSNYVFWYQQLPGTAPKLLIFESNRRPSGVPDRFSGSKSDTSASLAISGLRSEDEADYYCATWDDTLIAPVFGSGTKVTVLGQPKANPTVTLFPPSSEELQANKATLVCLISDFYPGAVTVAWKADSSPVKAGVETTTPSKQSNNKYAASSYLSLTPEQWKSHRSYSCQVTHEGSTVEKTVAPAEC
